Experimental data from the supplement of paper PMC12042874.
± gives the uncertainty stated by the source.

Assay: amyloid nucleation score (Sup35N fusion, yeast selection) (log enrichment); library NNK3; higher = more nucleation; inactive = no reads after selection
In short: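 Nucleation score: DiMSum log enrichment of output over input reads, centred on the mode score of non-aggregating sequences. Only sequences with at least 100 input reads were kept. Reads came from Illumina sequencing of plasmid inserts before and after 7 days of growth at 30°C without adenine and uracil, in psi-negative yeast expressing Sup35N fused to peptides of 20 random codons after 24 hours of induction with 100 μM copper sulfate.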

| Substance | amyloid nucleation score |
| --- | --- |
| IRGEFLQQPFIVDRNHVRWL | inactive |
| WTRCRLTDFYHSGMSYHHSG | inactive |
| AKVKIWAWASIGCPPMQALV | inactive |
| DSVMVYIRFIAMSSPQKG | inactive |
| PAKPGL | inactive |
| IFTLMINCLE | 0.809 ± 0.1 |
| GGENLTFLRSAFCSNWA | inactive |
| ELIKCFFYYNDVGV | inactive |
| FRPAN | -0.286 ± 0.78 |
| TTFSGETYEYYMFMCW | 0.532 ± 0.17 |
| MMVRWEVTV | -0.172 ± 1 |
| NNRLMYTSHISHACSYQMLK | inactive |
| LCSRRSGMVRIWIVSSARLY | inactive |
| HQFFVVNSRDWLGHSSKFRF | 0.814 ± 0.12 |
| IPRWKFN | -0.57 ± 1.1 |
| FCTVNH | inactive |
| HCSQLFESTYKRMSHISRDL | -0.56 ± 0.73 |
| YYLVSHWWFGQCFDHVVS | inactive |
| LWLCSYNATGSFVAKD | -0.246 ± 0.5 |
| NCVCEWTAFLYIPSIWGFEH | 1.78 ± 0.098 |
| LPNSNTGKKCYGMNHSKENC | inactive |
| ALMGHE | inactive |
| PYSNTKGANELQSYRRYVVS | inactive |
| YYPLLIPLY | inactive |

| Substance | amyloid nucleation score |
| --- | --- |
| GFYVCPMGCNEYRVLICSDS | inactive |
| RGVFLTEEASFIGELSLCSA | inactive |
| GVKYVDNIGLRGWFFCRHAV | inactive |
| NFRLSVLKVLCYVIVED | 2.14 ± 0.057 |
| SRISKMSELIYRLRYIVILV | inactive |
| VMCSWLTGCYIQKNRFQGSL | 0.724 ± 0.27 |
| TWCGFWTLMERVYHRRWTSL | inactive |
| NLCVYWYSWGRSWGDFVTGY | 0.269 ± 0.36 |
| QKVVFW | inactive |
| ECDHSCGRWNWIN | inactive |
| LRFRTDFSSASNK | 1.18 ± 0.081 |
| HCFLRMWKLLRTYLQVVLET | inactive |
| VKLMASEHLSCIGRI | inactive |
| QLIVRSGKDSGVLWNLGQYR | inactive |
| LKNVTDKMHTYLRLEGSRHV | inactive |
| QMCVVPTTY | inactive |
| LFDFHSSCKSAVIAYLLSRR | 0.138 ± 0.47 |
| VICGYLYVYVYHGFVGSLLG | inactive |
| QFKVLYPGREGDAKCHVGAR | inactive |
| RFSSSSQPFYSFAIVRR | inactive |
| WTTNLVNAYLDRHVHNLMPL | inactive |
| HIYIVKSVCILCIWPCGLTE | 2.86 ± 0.058 |
| SYFVLVWRETDFKHCLKGNF | inactive |
| TSYNFTQLTPILVKLMQMNL | inactive |

| Substance | amyloid nucleation score |
| --- | --- |
| IRVTRIRAKVTLTTNVMWVP | 0.463 ± 0.29 |
| TVQFMRKAQRQFSGA | inactive |
| LFLRTEKIRFRSTRLVTLSC | inactive |
| KRCWLWWIKVCTKMLLEVSS | inactive |
| LLGYASMASSFIYIQHNVLE | inactive |
| SEVFNQLGTARSNMARRACA | inactive |
| MAVID | inactive |
| FSFPMEIWKGFVYRTA | 3.16 ± 0.081 |
| VSYVCDPLRKIVGTLVRKQV | 0.563 ± 0.33 |
| NVFMTWYTARGFMCYPSWDR | 0.324 ± 0.43 |
| RMLTHKQIIIRTVWTQYVYI | inactive |
| DRGFGYGSITKGINA | inactive |
| CFNRITDC | inactive |
| RGIKWWILDFWVDMHTCMFK | inactive |
| IWKLHITLLSYRSILHVLHM | inactive |
| WAEREDAAVSLGLWYGDTCF | inactive |
| LVFSRCWFSMTVEYISYSVD | inactive |
| RAHICSYSFAIYVFVCN | 0.661 ± 0.13 |
| SIQKSWDASGSLIYS | inactive |
| RTIRFRFIGWWLAIAEDCRG | inactive |
| YNDCNIN | inactive |
| DPIYVANARNHRLS | inactive |
| GYDLFCGILMVDNSASIHTP | 2.84 ± 0.063 |
| MCFTLIKLLIQWKREDQIDE | 1.07 ± 0.096 |

| Substance | amyloid nucleation score |
| --- | --- |
| VGVFSIMV | inactive |
| YEWSYCFNYLCHHYDTNWQR | 2.96 ± 0.056 |
| LASSQLIYRTSRTCPTLLPL | 1.3 ± 0.1 |
| GKRNEWN | inactive |
| SKAYKAYNVLRLISI | inactive |
| YSFECMSH | inactive |
| PYFIPYCV | inactive |
| LCVSLNCPQFSFYSLQNQPY | 2.71 ± 0.053 |
| SRIAFKVDFASCRARMCGVE | inactive |
| RWWVMLLLVRWKRHQDTAYV | inactive |
| CTLRTVCHTGLLWVTFHRQY | 0.675 ± 0.18 |
| SRIGFPICLRRGYVNQDCNG | inactive |
| PKSYRSGSAVFLGFVSWYRW | inactive |
| QLCGLAAWDFFCLVGHILKK | 1.23 ± 0.095 |
| QGVCWLVV | inactive |
| HGIDKGLDVDETR | inactive |
| RIFSFT | inactive |
| EMCRN | inactive |
| LSAFVQDVLNVIQMLTEREF | inactive |
| NENFTNAQQNFYDCVF | inactive |
| FFSLLT | inactive |
| FGRIGSYWTMVQ | inactive |
| RYLVRCSFWVGKNLV | 0.722 ± 0.2 |
| RCYALDFRWLILDVSYHGWG | inactive |

| Substance | amyloid nucleation score |
| --- | --- |
| ITLGACS | inactive |
| GKIAVS | inactive |
| PRCARYYSKLFFCFSDLFLS | 0.233 ± 0.25 |
| LTMPWTAYCPFKCFLLRADS | inactive |
| KMCLLFVREFRMLFACVWVT | inactive |
| FFASRENPSFHFVSFWTYTW | inactive |
| LSECLRHGSDDTRFEVVGQD | 1.34 ± 0.097 |
| RMLLVEYCMFDFPDSFVRCN | 0.131 ± 0.23 |
| KYIIWLLDDSDLI | inactive |
| VGMISCKTILEFGGMSSFVM | inactive |
| ICDHVYVGNFLTQA | inactive |
| NMTVSHWGLTMSRL | 1.26 ± 0.11 |
| RSLYMLVNLMYCGTEVRFIC | inactive |
| VCLFHDSLRDNYRT | inactive |
| SCWYETMLFSLCKFKYLGLM | inactive |
| LDSADTNDHPFSWYNGMLGT | inactive |
| MCVFNNGVGLPDVGVNLAYN | inactive |
| NLCRNDDSLFFCSS | inactive |
| PNIMCYLVAMCVGLKFPARW | inactive |
| VKVLYSIAMGIGHGSIGKVC | -0.835 ± 0.96 |
| GIFSRPFRAGRGRVIHNGPD | inactive |
| PVLSRITFSNSSDRI | inactive |
| HAGVHWFERGSFHWMLFINY | inactive |
| FDSLFYCGYTYHYQVARKFR | inactive |

| Substance | amyloid nucleation score |
| --- | --- |
| VASIFRVYAVVGWSVVLVGV | inactive |
| SLDIWGCSKGRRWSGFKI | inactive |
| MILSESKYGFTFRLRVARQV | inactive |
| KMFSLWFQ | 1.69 ± 0.12 |
| RARMV | inactive |
| DYVAGN | inactive |
| SCCYAPRQPLWYASEFGVVG | inactive |
| RLCLFLDPIY | inactive |
| WDVYLPLVMSLK | 1.29 ± 0.12 |
| VRLFRVLWRIIPDGVSMKSV | inactive |
| GLIDLRVCEGRQFARTGSEM | 0.132 ± 0.36 |
| TPHFYLIYALGISLIFWFVE | inactive |
| SKLKATRTRL | inactive |
| KSAREFGAHFMSTITVACTR | inactive |
| RWGLYLR | inactive |
| CGMCLGLLHR | 0.898 ± 0.21 |
| QLVRQMTKGVG | inactive |
| SFYFWSDAYACIKARRM | inactive |
| SCNVVLRFGAMIYTL | inactive |
| GTLCVGPLKASCETGKLKFF | inactive |
| NYVVIPRFMYLVQIYLKVFW | -0.064 ± 0.8 |
| PTDIGGNPAGPGEFLIGTGW | inactive |
| VWVKSGKWYRQLIRKYVGSS | inactive |
| NYWEIEYGVAGCSFLEGMRH | inactive |

| Substance | amyloid nucleation score |
| --- | --- |
| NSFVVTCLVSVGKRGKSRWL | 1.25 ± 0.13 |
| CYFRVAHVLDSRILSRPGML | inactive |
| ANKWESGSNALLDISVLMFW | inactive |
| EFLGFCFPIAGYFLKDEKIG | inactive |
| SLIVQAL | inactive |
| FSLVAKMSFESLATNRWDSR | 1.41 ± 0.15 |
| VGSNTVM | -0.572 ± 0.84 |
| HMKPSMLYITVCRWFKFY | inactive |
| IIWLWGNNGKYTMGFLGIGG | inactive |
| KTHTPTVQMEL | inactive |
| GSSVCAR | inactive |
| SELRC | 0.114 ± 0.44 |
| CLFQIIVNTSYIGKFHTVLG | 1.88 ± 0.057 |
| DSHFKVYVPRQLREAREPVK | inactive |
| DKTYYYRDDSLV | inactive |
| YNRMHMDCTKRIE | inactive |
| PPRLTS | inactive |
| LPSYLESYYCVRVISGFYLS | inactive |
